One molecule from publication doi:10.1101/2024.04.19.590210 can be followed below.

In this series the target is TF-HIS-BBX13 (BBX13/COL15) (Arabidopsis thaliana, UniProt Q9C7E8 1-433). Nature of the series: EMSA.
Sequence of TF-HIS-BBX13 (BBX13/COL15) (Q9C7E8 whole entry): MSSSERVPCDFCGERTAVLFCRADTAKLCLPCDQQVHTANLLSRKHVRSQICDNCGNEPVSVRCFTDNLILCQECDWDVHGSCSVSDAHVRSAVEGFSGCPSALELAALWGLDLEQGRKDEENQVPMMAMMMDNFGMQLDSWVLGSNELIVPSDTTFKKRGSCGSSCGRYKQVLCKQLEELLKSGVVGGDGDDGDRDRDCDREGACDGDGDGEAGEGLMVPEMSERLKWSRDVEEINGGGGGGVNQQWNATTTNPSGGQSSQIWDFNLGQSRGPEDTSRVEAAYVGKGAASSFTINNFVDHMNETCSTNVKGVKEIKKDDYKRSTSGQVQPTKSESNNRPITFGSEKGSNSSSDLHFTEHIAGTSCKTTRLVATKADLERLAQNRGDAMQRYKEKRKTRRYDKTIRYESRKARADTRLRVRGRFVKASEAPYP

B1: FT-CORE2 EMSA probe (FT Biot) (dsDNA)
DNA 1: ATCAATAGACAAGAAAAAGATTGTGGTTATGATTTCACCGACCCGAGTTAATG
DNA 2: CATTAACTCGGGTCGGTGAAATCATAACCACAATCTTTTTCTTGTCTATTGAT
B1: the binding result was “binds”.
